Results published in paper PMC3376194.

Substrate: CCCCC/C=C\C/C=C\C/C=C\C/C=C\CCCC(=O)O
Experiment: cells, lysate or membranes named
Details: other: R53H, 0.025% Tween 20, 37 °C

B1: PGHS-1 R53H variant (Homo sapiens; R53H) (protein)
chain: ADPGAPTPVNPCCYYPCQHQGICVRFGLDHYQCDCTRTGYSGPNCTIPGLWTWLRNSLRPSPSFTHFLLTHGRWFWEFVNATFIREMLMRLVLTVRSNLIPSPPTYNSAHDYISWESFSNVSYYTRILPSVPKDCPTPMGTKGKKQLPDAQLLARRFLLRRKFIPDPQGTNLMFAFFAQHFTHQFFKTSGKMGPGFTKALGHGVDLGHIYGDNLERQYQLRLFKDGKLKYQVLDGEMYPPSVEEAPVLMHYPRGIPPQSQMAVGQEVFGLLPGLMLYATLWLREHNRVCDLLKAEHPTWGDEQLFQTTRLILIGETIKIVIEEYVQQLSGYFLQLKFDPELLFGVQFQYRNRIAMEFNHLYHWHPLMPDSFKVGSQEYSYEQFLFNTSMLVDYGVEALVDAFSRQIAGRIGGGRNMDHHILHVAVDVIRESREMRLQPFNEYRKRFGMKPYTSFQELVGEKEMAAELEELYGDIDALEFYPGLLLEKCHPNSIFGESMIEIGAPFSLKGLLGNPICSPEYWKPSTFGGEVGFNIVKTATLKKLVCLNTKTCPYVSFRVPDASQDDGPAVERPSTEL
Work on B1 yielded a Km of 1.9 ± 0.2 µM.
